Measured values published in publication PMC7496416 (Molecular microbiology, 2020).

Assays:
[1] = tested on: NasR wild type (Klebsiella oxytoca); experiment: fluorescence anisotropy; settings: 50 mM HEPES pH 7.5, 100 mM KCl, 1 mM MgCl2, with or without 1 mM KNO3; 50 nM Cy3-RNA final; 30 min in the dark, temperature not stated; Hill fit
[2] = tested on: NasR R340K (Klebsiella oxytoca); experiment: fluorescence anisotropy; settings: 50 mM HEPES pH 7.5, 100 mM KCl, 1 mM MgCl2, with or without 1 mM KNO3; 50 nM Cy3-RNA final; 30 min in the dark, temperature not stated; Hill fit
[3] = tested on: NasR K347R (Klebsiella oxytoca); experiment: fluorescence anisotropy; settings: 50 mM HEPES pH 7.5, 100 mM KCl, 1 mM MgCl2, with or without 1 mM KNO3; 50 nM Cy3-RNA final; 30 min in the dark, temperature not stated; Hill fit
NasR (His10-MBP-NasR) = target: T1, NasR (His10-MBP-NasR) (Klebsiella oxytoca, UniProt Q48468); experiment: fluorescence anisotropy of Cy3-labelled P1P2 nasF leader RNA, ion titration; assay type: biochemical; settings: 8 uM protein; 50 mM HEPES pH 7.5, 100 mM KCl, 1 mM MgCl2; allosteric activator, NIT domain
T1 sequence (Q48468 1-396): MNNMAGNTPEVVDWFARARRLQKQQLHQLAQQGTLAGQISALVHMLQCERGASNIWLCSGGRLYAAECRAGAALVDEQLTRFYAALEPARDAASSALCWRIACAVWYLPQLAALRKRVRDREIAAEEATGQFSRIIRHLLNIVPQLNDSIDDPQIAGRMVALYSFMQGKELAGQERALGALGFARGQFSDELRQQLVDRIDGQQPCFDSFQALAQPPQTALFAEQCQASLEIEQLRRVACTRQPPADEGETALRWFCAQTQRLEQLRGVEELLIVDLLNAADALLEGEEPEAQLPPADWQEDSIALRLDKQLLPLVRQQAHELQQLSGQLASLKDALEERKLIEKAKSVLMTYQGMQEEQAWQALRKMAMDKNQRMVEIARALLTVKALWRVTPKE

Row | Compound | Kd [1] [µM] | binding signal (fold weaker than wild type) [2] | binding signal (fold weaker than wild type) [3] | activation of RNA binding (Hill fit) (NasR (His10-MBP-NasR))
1 | P2 single-hairpin RNA | 12 | – | – | –
2 | P1P2 two-hairpin RNA | 1 | 10 | 10 | –
3 | O=NO [nitrite] | – | – | – | RNA binding activity was only observed in conditions containing nitrate or nitrite
4 | O=[N+]([O-])O [nitrate] | – | – | – | RNA binding activity was only observed in conditions containing nitrate or nitrite
